The values that follow come from patent US6350430B1, “Melanocortin receptor ligands and methods of using same” (Lion Bioscience Science AG, priority 1997, dated 2002).

*1 amine or outer side, *2 acyl side, *3 side chain or, on linkers, in order; H or OH if unused. Where a SMILES comes first, the peptide text is derived from it. [ ]: non-standard residue; d: D form. The star is where a group is joined. dPhe(4-125I) = para-(125I)iodo-D-phenylalanine, O=C([C@@H](Cc1ccc([125I])cc1)N[*:1])[*:2]; dPhe(4-Cl) = N[C@H](Cc1ccc(Cl)cc1)C(=O)O; dPhe(4-I) = N[C@H](Cc1ccc(I)cc1)C(=O)O; 2Nal = N[C@@H](Cc1ccc2ccccc2c1)C(=O)O; d2Nal = N[C@H](Cc1ccc2ccccc2c1)C(=O)O; Fmoc = O=C(OCC1c2ccccc2-c2ccccc21)*; Cha = N[C@@H](CC1CCCCC1)C(=O)O; d2Thi = N[C@H](Cc1cccs1)C(=O)O; Nle = CCCC[C@H](N)C(=O)O

Assay [1] has as its target MC receptors in rat brain homogenate (rat). As to the kind of experiment: competition binding, rat brain membranes.
For assay [2], the target named is MC receptors of mouse B16 cells (mouse). The assay is described as follows: competition binding, mouse B16 cells; tracer not stated.
Sequence of MC receptors of mouse B16 cells (mouse) (Q01727 whole entry): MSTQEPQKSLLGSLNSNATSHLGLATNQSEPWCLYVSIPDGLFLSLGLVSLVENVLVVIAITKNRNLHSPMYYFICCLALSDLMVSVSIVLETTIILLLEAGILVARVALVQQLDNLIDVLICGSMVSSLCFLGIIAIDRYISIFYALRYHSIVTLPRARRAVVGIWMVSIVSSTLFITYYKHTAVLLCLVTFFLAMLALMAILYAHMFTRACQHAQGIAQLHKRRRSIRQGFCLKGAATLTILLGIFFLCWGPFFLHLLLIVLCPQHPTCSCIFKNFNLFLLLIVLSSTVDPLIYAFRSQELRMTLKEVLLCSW
Another assay deals with T1, hMC1 (Homo sapiens, UniProt Q01726).
T1 construct: expressed in transfected cells; host or cells: mouse L cells
T1 sequence (Q01726 whole entry): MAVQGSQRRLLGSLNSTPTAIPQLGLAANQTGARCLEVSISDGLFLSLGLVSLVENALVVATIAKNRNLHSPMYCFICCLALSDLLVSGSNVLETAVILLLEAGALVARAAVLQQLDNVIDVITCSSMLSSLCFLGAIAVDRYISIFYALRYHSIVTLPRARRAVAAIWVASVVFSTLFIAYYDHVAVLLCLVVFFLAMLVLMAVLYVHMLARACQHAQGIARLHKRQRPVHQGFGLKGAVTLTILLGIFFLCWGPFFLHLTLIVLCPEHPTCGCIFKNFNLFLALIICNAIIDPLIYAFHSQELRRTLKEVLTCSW
As to the kind of experiment: Displacement of ^125I-HP 467 in transfected mouse L cells expressing hMC1. Conditions: receptor expressed in mouse L cells, read-out: Binding IC50, MC-1.

For a further assay, the target named is T2, hMC5 (Homo sapiens, UniProt P33032).
T2 construct: expressed in transfected cells; host or cells: HEK 293 cells
T2 sequence (P33032 whole entry): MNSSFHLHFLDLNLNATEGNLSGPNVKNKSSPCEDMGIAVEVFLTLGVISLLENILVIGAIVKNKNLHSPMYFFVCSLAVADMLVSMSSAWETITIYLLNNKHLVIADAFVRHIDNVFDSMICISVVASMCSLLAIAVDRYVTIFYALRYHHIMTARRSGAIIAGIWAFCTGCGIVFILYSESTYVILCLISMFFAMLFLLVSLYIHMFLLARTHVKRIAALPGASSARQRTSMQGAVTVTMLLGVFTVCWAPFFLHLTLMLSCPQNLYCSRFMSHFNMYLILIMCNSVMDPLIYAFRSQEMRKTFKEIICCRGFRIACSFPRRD
The assay is described as follows: Displacement of ^125I-HP 467 in HEK 293 cells expressing hMC5. Conditions: receptor expressed in HEK 293 cells, read-out: Binding IC50, MC-5.

In another assay the test system is Sprague-Dawley rats. As to the kind of experiment: HP 467 antagonism of HP 228 induced hypophagia (food intake). In kind it is in vivo. Conditions: IP BID, HP 228 1.5 mg/kg, HP 467 3.0 mg/kg. The protocol:
Male Sprague-Dawley rats weighing 250 to 300 grams were divided into three treatment groups of 8 rats each. The control group received IP saline injections BID (1 ml/kg) at 8 AM and 4 PM. […] After each injection, each rat immediately received a second injection. […] All injections started at 4 PM on day 0 and ended on the afternoon of day 2. Food consumption and body weight measurements were taken daily, each morning.

The target of assay [3] is MC receptors in rat brain homogenate. The assay is described as follows: Melanocortin receptor binding assay using ^125I-HP 467 in rat brain homogenate. Conditions: individual tetrapeptides. The protocol: For assays, fine chemicals were obtained from Sigma (St. Louis Mo.) and GF/B plates and MICROSCINT were obtained from Packard Instrument Co. (Meriden Conn.). Frozen rat brains were thawed and the thalamus and hypothalamus were dissected out and weighed. The tissue was homogenized in 40 ml buffer A (50 mM Tris-HCl, 2 mM EDTA, 10 mM CaCl2, 100 μM PMSF, pH 7.4) in a Dounce homogenizer. The homogenate was centrifuged at 39,000×g for 10 min, resuspended in 20 ml fresh buffer and recentrifuged. The pellet was resuspended in 80 ml buffer B (50 mM Tris-HCl, 2 mM EDTA, 10 mM CaCl2, 5 mM MgCl2, 100 μM PMSF, pH 7.4). ^125I-HP 467 was custom labeled by Amersham to a specific activity of 2000 Ci/mmol (Amersham; Arlington Heights IL). Fifty pM ^125I-HP 467 and 0.2 mg protein/ml membrane suspension containing 2 mg/ml BSA was added to each assay tube.
Competition assays were performed using α-MSH, γ1-MSH, γ2-MSH, γ3-MSH and ACTH (4-10) also containing 1 mM phenanthroline, 200 μg/ml bacitracin, and 5 μg/ml leupeptin. Tubes were incubated for 2 hours at 37° C. The assay was terminated by filtration through GF/B filters previously soaked in 5 mg/ml BSA Tris-HCl buffer. The samples were washed with Tris-HCl, dried and counted in Packard Minaxl gamma counter (Packard Instrument Co.).
IC50 values were determined in brain tissue as described in Example III.

Assay [4] addresses T3, MC receptor in mouse B16 cells (Mus musculus, UniProt Q01727).
T3 construct: endogenous in cells; host or cells: mouse B16 cells
The assay is described as follows: MC receptor binding activity in mouse B16 cells. Conditions: individual tetrapeptides. The source says:
The 36 peptides were screened for MC receptor binding activity in rat brain and in mouse B16 cells.

Assay [5] has as its target human melanocortin receptor 3 (human) (UniProt P41968). The assay is described as follows: saturation radioligand binding; mouse L cells expressing MC3.
Assay [6] has the same target. As to the kind of experiment: saturation radioligand binding; HEK 293 cells expressing MC3.
Assay [7] deals with human melanocortin receptor 1 (human) (UniProt Q01726). The assay is described as follows: saturation radioligand binding; mouse L cells expressing MC1.
Sequence of human melanocortin receptor 1 (human) (Q01726 whole entry): as the sequence (Q01726 whole entry) above
For assay [8] the target is unchanged. As to the kind of experiment: saturation radioligand binding; HEK 293 cells expressing MC1.
Assay [9] concerns the target human melanocortin receptor 4 (human) (UniProt P32245). The assay is described as follows: saturation radioligand binding; mouse L cells expressing MC4.
The target of assay [10] is MC receptors in rat brain homogenate. As to the kind of experiment: Melanocortin receptor binding assay using ^125I-HP 467 in rat brain homogenate. Conditions: saturation binding to rat brain membranes.
The target in another assay is T4, hMC3 (Homo sapiens, UniProt P41968).
T4 construct: expressed in transfected cells; host or cells: mouse L cells
T4 sequence (P41968 whole entry): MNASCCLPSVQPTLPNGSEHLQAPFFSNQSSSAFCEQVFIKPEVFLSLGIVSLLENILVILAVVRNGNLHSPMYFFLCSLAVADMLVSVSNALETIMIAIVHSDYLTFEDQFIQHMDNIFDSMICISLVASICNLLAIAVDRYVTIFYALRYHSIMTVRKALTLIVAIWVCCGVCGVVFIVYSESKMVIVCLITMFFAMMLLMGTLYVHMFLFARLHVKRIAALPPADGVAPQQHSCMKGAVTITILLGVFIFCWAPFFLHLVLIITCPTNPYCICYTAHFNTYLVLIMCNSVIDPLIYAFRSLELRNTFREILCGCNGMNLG
The assay is described as follows: Displacement of ^125I-HP 467 in transfected mouse L cells expressing hMC3. Conditions: receptor expressed in mouse L cells, read-out: Binding IC50, MC-3.

The next assay concerns the target T5, hMC4 (Homo sapiens, UniProt P32245).
T5 construct: expressed in transfected cells; host or cells: mouse L cells
The assay is described as follows: Displacement of ^125I-HP 467 in transfected mouse L cells expressing hMC4. Conditions: receptor expressed in mouse L cells, read-out: Binding IC50, MC-4.

Assay [11] has as its target MC receptors in rat brain homogenate (rat). As to the kind of experiment: saturation radioligand binding, rat brain membranes.

Sequence of human melanocortin receptor 3 (human) (P41968 whole entry): as above
T3 sequence (Q01727 whole entry): as the sequence (Q01727 whole entry) above
T5 sequence (P32245 whole entry): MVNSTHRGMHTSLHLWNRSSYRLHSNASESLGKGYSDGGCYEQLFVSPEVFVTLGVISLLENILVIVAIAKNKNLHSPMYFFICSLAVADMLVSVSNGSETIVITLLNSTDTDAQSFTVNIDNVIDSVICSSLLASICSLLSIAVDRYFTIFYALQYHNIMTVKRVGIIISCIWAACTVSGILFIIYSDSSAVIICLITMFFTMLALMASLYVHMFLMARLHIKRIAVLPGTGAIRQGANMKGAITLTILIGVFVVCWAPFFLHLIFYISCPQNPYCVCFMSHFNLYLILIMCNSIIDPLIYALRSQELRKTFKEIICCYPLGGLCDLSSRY
Sequence of human melanocortin receptor 4 (human) (P32245 whole entry): as above

On to Ac-(αFmLys)-R-(L-Cha)-r-NH2 (peptide), for which the IC50 – broadly, the concentration that inhibits the measured activity by half – in [1] was 427 nM; in assay [2] it was 185 nM.

Take “Ac-H-(pCl-f)-R-(D-Nal)-NH2 (SEQ ID NO:18) (peptide)”: the half-maximal inhibitory concentration (IC50) in [1] was 51 nM; in [2] it was 19 nM.

AC-H-(pcl-f)-R-(Nal)-NH2 (peptide): the IC50 in assay [1] was 18 nM; in assay [2], 68 nM.

Ac-H-(pcl-f)-(L-Cha)-r-NH2 (peptide) came in with an IC50 in assay [2] of 156 nM.

Consider `CCCC[C@H](NC(C)=O)C(=O)N[C@@H](CCC(N)=O)C(=O)N[C@@H](Cc1c[nH]cn1)C(=O)N[C@H](Cc1ccccc1)C(=O)N[C@@H](CCCNC(=N)N)C(=O)N[C@H](Cc1c[nH]c2ccccc12)C(=O)NCC(N)=O` [HP 228, Ac-(Nle)QHfRwG-NH2, reference compound], for which the IC50 at hMC1 amounted to 1.49 nM; on hMC5, 194 nM. Moreover, in the assay with Sprague-Dawley rats (Day 1), the “Hypophagia (food intake) Change, Day 1” value is −6.8%. Also, the “Hypophagia (food intake) Change, Day 2” value in the assay on Sprague-Dawley rats (Day 2) is −5.3%.

Regarding “Ac-(αFmLys)-(pCl-f)-R-(Nal)-NH2 (peptide)”, the IC50 in [1] was found to be 427 nM; in assay [2] it was 41 nM.

The molecule `CC(=O)N[C@@H](Cc1c[nH]cn1)C(=O)N[C@H](Cc1ccc(Cl)cc1)C(=O)N[C@@H](CCCNC(=N)N)C(=O)N[C@@H](Cc1ccc2ccccc2c1)C(N)=O` [AC—H-(pcl-f)-R-(Nal)-NH2] (Ac-H[dPhe(4-Cl)]R[2Nal]-NH2) registered an IC50 in assay [3] of 18 nM.

With Ac-(αFmLys)-R-R-(Nal)-NH2 (peptide), the figures for the IC50 in [1] and in assay [2] were 2000 nM and 1420 nM, respectively.

With “Ac-(αFmLys)-R-(L-Cha)-(Nal)-NH2 (peptide)”, the IC50 in assay [2] turned out to be 1140 nM.

Take `CC(=O)N[C@@H](Cc1c[nH]cn1)C(=O)N[C@H](Cc1ccc(Cl)cc1)C(=O)N[C@@H](CC1CCCCC1)C(=O)N[C@H](CCCNC(=N)N)C(N)=O` [Ac—H-(pcl-f)-(L-Cha)-r-NH2] (Ac-H[dPhe(4-Cl)][Cha][dR]-NH2): the IC50 in assay [3] is over 5000 nM; in [4], 156 nM.

With “^125I-HP 467, Ac-Nle-Gln-His-(p(^125I)-D-Phe)-Arg-(D-Trp)-Gly-NH2”, the Kd (as a rule, the constant that tells how readily two partners part at equilibrium) is 0.04 nM in assay [5]; 0.29 nM in [6]; 0.092 nM in [7]; 0.132 nM in [8]; 0.082 nM in assay [9].

Take `CCCC[C@H](NC(C)=O)C(=O)N[C@@H](CCC(N)=O)C(=O)N[C@@H](Cc1c[nH]cn1)C(=O)N[C@H](Cc1ccc(I)cc1)C(=O)N[C@@H](CCCNC(=N)N)C(=O)N[C@H](Cc1c[nH]c2ccccc12)C(=O)NCC(N)=O` [^125I-HP 467, Ac-Nle-Gln-His-(p(^125I)-D-Phe)-Arg-(D-Trp)-Gly-NH2] (Ac-[Nle]QH[dPhe(4-I)]R[dW]G-NH2): in assay [10], binding was characterised by a dissociation constant (Kd) of 0.4 nM.

`CC(=O)NCCCC[C@H](NC(=O)OCC1c2ccccc2-c2ccccc21)C(=O)N[C@@H](CCCNC(=N)N)C(=O)N[C@@H](CCCNC(=N)N)C(=O)N[C@@H](Cc1ccc2ccccc2c1)C(N)=O` [Ac-(αFmLys)-R-R-(Nal)-NH2] (Fmoc-K(Ac)RR[2Nal]-NH2): the IC50 in assay [3] came out at 2000 nM.

In the case of `CC(=O)NCCCC[C@H](NC(=O)OCC1c2ccccc2-c2ccccc21)C(=O)N[C@@H](CCCNC(=N)N)C(=O)N[C@@H](CC1CCCCC1)C(=O)N[C@H](CCCNC(=N)N)C(N)=O` [Ac-(αFmLys)-R-(L-Cha)-r-NH2] (Fmoc-K(Ac)R[Cha][dR]-NH2), in [3], the IC50 was determined as 427 nM.

Molecule `CC(=O)NCCCC[C@H](NC(=O)OCC1c2ccccc2-c2ccccc21)C(=O)N[C@H](Cc1ccc(Cl)cc1)C(=O)N[C@@H](CCCNC(=N)N)C(=O)N[C@@H](Cc1ccc2ccccc2c1)C(N)=O` [Ac-(αFmLys)-(pCl-f)-R-(Nal)-NH2] (Fmoc-K(Ac)[dPhe(4-Cl)]R[2Nal]-NH2) came in with an IC50 in [3] of 427 nM.

For `CC(=O)N[C@@H](Cc1c[nH]cn1)C(=O)N[C@H](Cc1ccc(Cl)cc1)C(=O)N[C@@H](CCCNC(=N)N)C(=O)N[C@H](Cc1ccc2ccccc2c1)C(N)=O` [Ac—H-(pCl-f)-R-(D-Nal)-NH2, Ac-His-(pCl-f)-Arg-(D-Nal)-NH2] (Ac-H[dPhe(4-Cl)]R[d2Nal]-NH2), the IC50 in [3] came out at 51 nM; in [3] (listed as Ac-His-(pCl-f)-Arg-(D-Nal)-NH2), 18 nM.

In assay [3], `CC(=O)NCCCC[C@H](NC(=O)OCC1c2ccccc2-c2ccccc21)C(=O)N[C@@H](CCCNC(=N)N)C(=O)N[C@@H](CC1CCCCC1)C(=O)N[C@@H](Cc1ccc2ccccc2c1)C(N)=O` [Ac-(αFmLys)-R-(L-Cha)-(Nal)-NH2] (Fmoc-K(Ac)R[Cha][2Nal]-NH2) had an IC50 of over 4000 nM.

For the molecule `CCCC[C@H](NC(C)=O)C(=O)N[C@@H](CCC(N)=O)C(=O)N[C@@H](Cc1c[nH]cn1)C(=O)N[C@H](Cc1ccc(I)cc1)C(=O)N[C@@H](CCCNC(=N)N)C(=O)N[C@H](Cc1c[nH]c2ccccc12)C(=O)NCC(N)=O` [HP 467, Ac-Nle-Gln-His-(p(I)-D-Phe)-Arg-(D-Trp)-Gly-NH2] (Ac-[Nle]QH[dPhe(4-I)]R[dW]G-NH2), the IC50 at hMC1 came out at 0.23 nM; at hMC3, 0.48 nM; on hMC4 it was 0.31 nM; at hMC5 it was 0.46 nM.

In [3], `CC(=O)NCCCC[C@H](NC(=O)OCC1c2ccccc2-c2ccccc21)C(=O)N[C@H](Cc1cccs1)C(=O)N[C@@H](CCCNC(=N)N)C(=O)N[C@@H](Cc1ccc2ccccc2c1)C(N)=O` [Ac-(αFmLys)-(D-Thi)-R-(Nal)-NH2] (Fmoc-K(Ac)[d2Thi]R[2Nal]-NH2) yielded an IC50 of 469 nM.

As for “Ac-(αFmLys)-(D-Thi)-R-(Nal)-NH2 (peptide)”, the IC50 in [1] was 469 nM.

B1: ^125I-HP 467, Ac-Nle-Gln-His-(p(^125I)-D-Phe)-Arg-(D-Trp)-Gly-NH2 (peptide)
peptide: Ac-[Nle]QH[dPhe(4-125I)]R[dW]G-NH2
In the case of B1, in assay [11], the Bmax (fmoles/mg protein) is 21 and the Kd stood at 0.4 nM.
